From the supplement of paper PMC12042874
± gives the uncertainty stated by the source.

Test: amyloid nucleation score (Sup35N fusion, yeast selection) (log enrichment); library NNK2; higher = more nucleation; inactive = no reads after selection
Summary of the method: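 Plasmid inserts were Illumina-sequenced at input and output from psi-negative yeast expressing Sup35N fused to peptides of 20 random codons. The yeast were induced with 100 μM copper sulfate for 24 hours and grown 7 days at 30°C on medium lacking adenine and uracil, and sequences with under 100 input reads were excluded. Nucleation score is the DiMSum log enrichment of output over input reads, centred on the mode score of non-aggregating sequences.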

For GTRYSLCTRCG, which amyloid nucleation score is on record?
Its amyloid nucleation score is 0.766 ± 0.5.

Which amyloid nucleation score does the source give for HLGRG here?
The amyloid nucleation score was 0.126 ± 0.45.

For DISVRTMFVS, which amyloid nucleation score is on record?
The amyloid nucleation score was -0.392 ± 0.48.

For SRLSKTRLPFWHFMNMLKMP, which amyloid nucleation score is on record?
The amyloid nucleation score was 0.126 ± 0.56.

With MMVRN as the substance, how does the amyloid nucleation score read?
The amyloid nucleation score was 1.22 ± 0.57.

For SWTSIVQIVILCGFRQWLAR, which amyloid nucleation score is on record?
The amyloid nucleation score was 0.076 ± 0.39.

Which amyloid nucleation score does the source give for CHLKFNANVKWLGSLGKLEY here?
The amyloid nucleation score was 4.74 ± 0.069.

With ATGSYSMITLDIFQSNCSDA as the substance, how does the amyloid nucleation score read?
The amyloid nucleation score was 3.51 ± 0.053.

Which amyloid nucleation score does the source give for VIRSSFFFSLELSSREEFGY here?
Its amyloid nucleation score is -0.817 ± 0.74.

For IDKICFKTDLIVFCRGLNPC, which amyloid nucleation score is on record?
The amyloid nucleation score was 1.9 ± 0.19.

Which amyloid nucleation score does the source give for YHLLGALYNDAWVIWETTVL here?
The amyloid nucleation score was -0.116 ± 0.76.

With FYSLQFLTILLVTFMEATYP as the substance, how does the amyloid nucleation score read?
Its amyloid nucleation score is -0.165 ± 0.27.

With MDLLPNSGYGLRSDLRVLAE as the substance, how does the amyloid nucleation score read?
Its amyloid nucleation score is 3.5 ± 0.097.

Which amyloid nucleation score does the source give for SCCYVLKRDFKLMNNVPSGR here?
Its amyloid nucleation score is -0.033 ± 0.2.

Which amyloid nucleation score does the source give for YHKAIFFGF here?
Its amyloid nucleation score is -0.563 ± 0.64.

With PDISKECLTIGNGSACELTD as the substance, how does the amyloid nucleation score read?
The amyloid nucleation score was 0.827 ± 0.28.

Which amyloid nucleation score does the source give for SGNGTVRSEYTRYCCLKGEM here?
Its amyloid nucleation score is 0.822 ± 0.3.

Which amyloid nucleation score does the source give for RSVALARLMFVPLTLDSV here?
Its amyloid nucleation score is 0.264 ± 0.2.

Which amyloid nucleation score does the source give for WCSNR here?
Its amyloid nucleation score is 0.153 ± 0.45.

With RNGVLAIGLY as the substance, how does the amyloid nucleation score read?
Its amyloid nucleation score is -0.759 ± 0.63.

Which amyloid nucleation score does the source give for FLEQFVMSLT here?
Its amyloid nucleation score is -0.752 ± 0.44.

For GSGIIHTVGLGV, which amyloid nucleation score is on record?
The amyloid nucleation score was -0.153 ± 0.65.

For VHGDMVFVCLTRCYRMF, which amyloid nucleation score is on record?
The amyloid nucleation score was 5.37 ± 0.065.

Which amyloid nucleation score does the source give for GFSLC here?
Its amyloid nucleation score is 0.541 ± 0.66.

For NVCIKLARCVVGLNLRFRGS, which amyloid nucleation score is on record?
The amyloid nucleation score was -0.347 ± 0.79.

For GYQRNYSFAVSMEARSVVPG, which amyloid nucleation score is on record?
The amyloid nucleation score was 4.12 ± 0.058.

With KRDLGFRVVLWYLW as the substance, how does the amyloid nucleation score read?
Its amyloid nucleation score is -0.942 ± 0.6.

With LQYINRGISRHVVKYSRSLS as the substance, how does the amyloid nucleation score read?
The amyloid nucleation score was -0.733 ± 0.41.

With LVRNPAQMSFRPIVHSVCYL as the substance, how does the amyloid nucleation score read?
The amyloid nucleation score was 0.724 ± 0.16.

Which amyloid nucleation score does the source give for WDRTTDSSFQVRKYQSENFL here?
Its amyloid nucleation score is 0.092 ± 1.1.

For FRSVFDKFLRYVFSFDVY, which amyloid nucleation score is on record?
The amyloid nucleation score was -0.984 ± 0.76.

With TCSRERGRRWFGICASYSCE as the substance, how does the amyloid nucleation score read?
Its amyloid nucleation score is 0.629 ± 0.47.

For FIRYVCHNVWDICYHLEMLL, which amyloid nucleation score is on record?
The amyloid nucleation score was “inactive”.

Which amyloid nucleation score does the source give for SRICMKWDSSNLWSF here?
Its amyloid nucleation score is “inactive”.

With VRDNHNRSGQVRGGADLN as the substance, how does the amyloid nucleation score read?
Its amyloid nucleation score is 0.822 ± 0.34.

For LHNLAAGNSRLTSNLMFALA, which amyloid nucleation score is on record?
Its amyloid nucleation score is “inactive”.

Which amyloid nucleation score does the source give for SDSFKDPTWREDNRGW here?
Its amyloid nucleation score is 2.54 ± 0.085.

Which amyloid nucleation score does the source give for PIYLIC here?
The amyloid nucleation score was -0.686 ± 0.28.

Which amyloid nucleation score does the source give for SYNLNSNRVESIDFSSIIIV here?
Its amyloid nucleation score is -0.459 ± 1.1.

Which amyloid nucleation score does the source give for FVCGGILFLLCFLE here?
Its amyloid nucleation score is 2.56 ± 0.12.

For YELNSLMKMSYAEQFPKTWA, which amyloid nucleation score is on record?
The amyloid nucleation score was 0.447 ± 0.46.

Which amyloid nucleation score does the source give for FIAYMYPMVIWIPMRFLINQ here?
The amyloid nucleation score was “inactive”.

With VLFCMSYKSARLEL as the substance, how does the amyloid nucleation score read?
The amyloid nucleation score was 6.08 ± 0.07.

Which amyloid nucleation score does the source give for WIVSGKLTTTFSLRR here?
Its amyloid nucleation score is 5.15 ± 0.058.

For IAFGAGCLMWSR, which amyloid nucleation score is on record?
The amyloid nucleation score was 8.335 ± 0.063.

For KLIYLGGSSEFGTHFSA, which amyloid nucleation score is on record?
The amyloid nucleation score was -0.429 ± 0.61.

Which amyloid nucleation score does the source give for VYCSSCSVFLLCVKNLSWCV here?
Its amyloid nucleation score is 8.658 ± 0.053.

With KVEALDVTRGIVPGKSLAVR as the substance, how does the amyloid nucleation score read?
The amyloid nucleation score was 0.249 ± 0.55.

For HNSLMRMVWLNKHPK, which amyloid nucleation score is on record?
The amyloid nucleation score was -0.095 ± 0.8.

With VVWWGVNR as the substance, how does the amyloid nucleation score read?
The amyloid nucleation score was 0.091 ± 0.38.

For VYYVSRLLTFFPVSSNPCGS, which amyloid nucleation score is on record?
Its amyloid nucleation score is 0.566 ± 0.56.

With TSCSTTAALEVNIRMTDVGV as the substance, how does the amyloid nucleation score read?
The amyloid nucleation score was 1.59 ± 0.14.

For GVFYDKYRGSVWSEDCKLWT, which amyloid nucleation score is on record?
The amyloid nucleation score was “inactive”.

Which amyloid nucleation score does the source give for TFVHIIHNFVGVQHFKKLGC here?
The amyloid nucleation score was 5 ± 0.094.

Which amyloid nucleation score does the source give for TLMYSQSAIDWTMSSPGRCR here?
The amyloid nucleation score was 1.49 ± 0.36.

For FLGLTDWRVDYCSEWQGFAQ, which amyloid nucleation score is on record?
Its amyloid nucleation score is -0.199 ± 1.1.

Which amyloid nucleation score does the source give for QLVFYSNFVSKDVNVDLQWL here?
Its amyloid nucleation score is 5.75 ± 0.062.

For ELQGYSNCGLEIGGTCHRGY, which amyloid nucleation score is on record?
The amyloid nucleation score was -0.302 ± 0.61.

For SVYEIYWRVT, which amyloid nucleation score is on record?
Its amyloid nucleation score is -0.348 ± 0.65.

For YTFYLNF, which amyloid nucleation score is on record?
The amyloid nucleation score was 5.27 ± 0.053.

With SGSALLIEFRYSTSFREKRI as the substance, how does the amyloid nucleation score read?
The amyloid nucleation score was 5.687 ± 0.046.

For IWQMLVMMKAWKMCPTLVRY, which amyloid nucleation score is on record?
The amyloid nucleation score was 1.09 ± 0.41.

Which amyloid nucleation score does the source give for IMYVMGVVFNTMWVSA here?
The amyloid nucleation score was -1.11 ± 0.62.

Which amyloid nucleation score does the source give for ARNSGWTATSSVYPLKTPAT here?
Its amyloid nucleation score is 1.37 ± 0.42.

Which amyloid nucleation score does the source give for WFLHRGSIGYQTAFFCSYLP here?
The amyloid nucleation score was -0.208 ± 1.1.

With MRVDLKLVSAYLKSRFGPMF as the substance, how does the amyloid nucleation score read?
Its amyloid nucleation score is -0.341 ± 0.79.

With FYHRGMMWMYKWGMARYRVC as the substance, how does the amyloid nucleation score read?
Its amyloid nucleation score is 0.044 ± 0.44.

With VLSWGFKGNAKPHHTDSLKG as the substance, how does the amyloid nucleation score read?
The amyloid nucleation score was 0.603 ± 0.22.

For LRFRATLSVLLYLWDTSRHV, which amyloid nucleation score is on record?
Its amyloid nucleation score is 1.76 ± 0.26.

With GFVTDFIIKSI as the substance, how does the amyloid nucleation score read?
The amyloid nucleation score was -1.07 ± 0.64.

For SSRQTVGNTPASDLLRDYCW, which amyloid nucleation score is on record?
Its amyloid nucleation score is 0.388 ± 0.38.

Which amyloid nucleation score does the source give for YCTGPVIWPWHKGLLSWYAW here?
Its amyloid nucleation score is 1.19 ± 0.57.

Which amyloid nucleation score does the source give for EYIYTIGYGL here?
The amyloid nucleation score was “inactive”.

For CHGSCSYETSVVCYMWSGKG, which amyloid nucleation score is on record?
The amyloid nucleation score was 3.21 ± 0.14.

With LLNVPGLVAYEIRGPMRYLF as the substance, how does the amyloid nucleation score read?
The amyloid nucleation score was -0.519 ± 0.44.

Which amyloid nucleation score does the source give for TFNIGNELVT here?
Its amyloid nucleation score is -0.99 ± 0.37.

For RVVLCVNLSPTSFVWSRIKE, which amyloid nucleation score is on record?
Its amyloid nucleation score is 3.45 ± 0.15.

For YANVA, which amyloid nucleation score is on record?
The amyloid nucleation score was -1.65 ± 0.75.

For NIYIWVSTMFLLKSEQSSSN, which amyloid nucleation score is on record?
Its amyloid nucleation score is 6.038 ± 0.058.

For VTMYPFRRIVGRQQLMAWLY, which amyloid nucleation score is on record?
Its amyloid nucleation score is 0.973 ± 0.38.

For RCKIRSLFSNLYPDSVFTLT, which amyloid nucleation score is on record?
Its amyloid nucleation score is “inactive”.

Which amyloid nucleation score does the source give for IYINYHREA here?
The amyloid nucleation score was 3.54 ± 0.052.

Which amyloid nucleation score does the source give for IWMRVVC here?
Its amyloid nucleation score is 0.337 ± 0.8.

For IFGSLLNMIYMV, which amyloid nucleation score is on record?
Its amyloid nucleation score is 2.5 ± 0.21.

Which amyloid nucleation score does the source give for FVSAHRYWCHMTLSAVMGLH here?
Its amyloid nucleation score is 3.04 ± 0.12.

With LFISVSYSEFVFQIQDALRC as the substance, how does the amyloid nucleation score read?
Its amyloid nucleation score is 1.48 ± 0.12.
